Assay results: PMC1839165, “Virus Evolution Reveals an Exclusive Role for LEDGF/p75 in Chromosomal Tethering of HIV” (PLoS Pathogens, 2007)

B1: MBP-IBD (domain or fragment, human, UniProt O75475-1 347-429, looked up)
chain: SMDSRLQRIHAEIKNSLKIDNLDVNRCIEALDELASLQVTMQQAQKHTEMITTLKKIRRFKVSQVIMEKSTMLYNKFKNMFLV
notes: the introduction gives amino acids 347 to 429 for the IBD; GenBank NM_033222; The limits are those printed for the minimal IBD in the introduction; also called IBD-MBP; source: E. coli BL21 (plasmid pMBP-IBD), purified
B2: MBP-Δ325 (domain or fragment, human, UniProt O75475-1 325-530, looked up)
chain: EQQNKDEGKKPEVKKVEKKRETSMDSRLQRIHAEIKNSLKIDNLDVNRCIEALDELASLQVTMQQAQKHTEMITTLKKIRRFKVSQVIMEKSTMLYNKFKNMFLVGEGDSVITQVLNKSLAEQRQHEEANKTKDQGKKGPNKKLEKEQTGSKTLNGGSDAQDGNQPQHNGESNEDSKDNHEASTKKKPSSEERETEISLKDSTLDN
notes: GenBank NM_033222; also called Δ325-MBP; Δ325 fragment; source: E. coli BL21 (plasmid pMBP-Δ325), purified
B3: C-terminal His6-tagged HIV-1 integrase, wild type (enzyme, HIV-1 (NL4-3), UniProt P12497 1148-1435, looked up)
chain: FLDGIDKAQEEHEKYHSNWRAMASDFNLPPVVAKEIVASCDKCQLKGEAMHGQVDCSPGIWQLDCTHLEGKVILVAVHVASGYIEAEVIPAETGQETAYFLLKLAGRWPVKTVHTDNGSNFTSTTVKAACWWAGIKQEFGIPYNPQSQGVIESMNKELKKIIGQVRDQAEHLKTAVQMAVFIHNFKRKGGIGGYSAGERIVDIIATDIQTKELQKQITKIQNFRVYYRDSRDPVWKGPAKLLWKGEGAVVIQDNSDIKVVPRRKAKIIRDYGKQMAGDDCVASRQDED
notes: HIV-1 NL4-3 integrase (IN), the cut product of the Gag-Pol polyprotein; GenBank U26942, base pairs 3608 through 4471; the results call it IN^s (IN from a synthetic gene); also called IN-WT; WT IN^s; not shown: His6, C-terminal, kept

Legend:
[1] = biological target: C-terminal His6-tagged HIV-1 integrase A128T (HIV-1 (NL4-3)); assay: AlphaScreen or HTRF; 300 nM C-terminal His6-tagged IN with increasing MBP-Δ325 (30 to 300 nM); Ni-chelate acceptor beads, anti-MBP donor beads; 25 mM Tris/HCl pH 7.3, 150 mM NaCl, 1 mM MgCl2, 0.01% Tween-20, 0.1% BSA; room temperature
[2] = biological target: C-terminal His6-tagged HIV-1 integrase A128T/E170G (HIV-1 (NL4-3)); assay: as above
[3] = biological target: C-terminal His6-tagged HIV-1 integrase E170G (HIV-1 (NL4-3)); assay: as above
[4] = biological target: B3; assay: pull-down; 6 μg C-terminal His6-tagged IN on Ni-NTA-agarose; 6 μg LEDGF/p75, MBP-IBD or MBP-Δ325 added; 25 mM Tris-HCl pH 7.4, 0.1% Nonidet P-40, 20 mM imidazole, 150 mM NaCl, 1 mM MgCl2, BSA; 4 h at 4 °C; SDS-PAGE, Coomassie Blue; conditions: both partners purified
[5] = biological target: B3; assay: AlphaScreen or HTRF; 30 nM C-terminal His6-tagged IN with increasing MBP-Δ325 (30 to 300 nM); Ni-chelate acceptor beads, anti-MBP donor beads; 25 mM Tris/HCl pH 7.3, 150 mM NaCl, 1 mM MgCl2, 0.01% Tween-20, 0.1% BSA; room temperature; conditions: both partners purified
[6] = biological target: T1, Nontagged LEDGF/p75 (human, UniProt O75475-1 1-530); assay: pull-down; 6 μg C-terminal His6-tagged IN on Ni-NTA-agarose; 6 μg LEDGF/p75, MBP-IBD or MBP-Δ325 added; 25 mM Tris-HCl pH 7.4, 0.1% Nonidet P-40, 20 mM imidazole, 150 mM NaCl, 1 mM MgCl2, BSA; 4 h at 4 °C; SDS-PAGE, Coomassie Blue; conditions: both partners purified
T1 construct: LEDGF/p75, human, 530 amino acids, GenBank NM_033222; also called recombinant LEDGF/p75; full-length LEDGF/p75; source: E. coli BL21(DE3) (plasmid pCPnat75), purified

“MBP-Δ325 (from UniProt O75475-1 325-530) (domain or fragment)” was tested, and the fold reduction of the AlphaScreen signal compared with IN-WT (300 nM IN) [1] was 2 fold, the fold reduction of the AlphaScreen signal compared with IN-WT (300 nM IN, 300 nM MBP-Δ325) [2] was 8 fold and the fold reduction of the AlphaScreen signal compared with IN-WT (300 nM IN) [3] was 3 fold.

B1: binds [4].

B2: binds [5].

B3: binds [6].
